The values that follow come from article PMC7579404, “A Novel KPC Variant KPC-55 in Klebsiella pneumoniae ST307 of Reinforced Meropenem-Hydrolyzing Activity” (Frontiers in Microbiology, 2020).

Data set [1] concerns CC(C)(O/N=C(\C(=O)N[C@@H]1C(=O)N2C(C(=O)[O-])=C(C[n+]3ccccc3)CS[C@H]12)c1csc(N)n1)C(=O)O. The data set can be described thus: purified protein. The data set is classed as biochemical, Klebsiella pneumoniae. To be noted: 50 mM morpholinepropanesulfonic acid pH 7.0, 50 mM NaCl, 100 mM sodium phosphate pH 7.0, 30°C.
Data set [2] shares this test system. The data set can be described thus: purified protein. Particulars: 50 mM morpholinepropanesulfonic acid pH 7.0, 50 mM NaCl, 100 mM sodium phosphate pH 7.0, 30°C.

The term Km denotes the substrate concentration at which the rate is half of its maximum. As a reminder, the kcat is the maximal rate divided by the concentration of active sites. As usually defined, the kcat/Km is the second-order rate constant that governs catalysis at low substrate concentration. On to “KPC-2 (and its variant KPC-55 = KPC-2 Y264N) (Klebsiella pneumoniae)”, for which, in data set [1], the Km was 0.28 ± 0.09 µM, the kcat turned out to be 0.02 ± 0.003 s⁻¹ and the kcat/Km amounted to 70000 ± 20000 M⁻¹ s⁻¹.
In the case of “KPC-2 (and its variant KPC-55 = KPC-2 Y264N) (Klebsiella pneumoniae; Y262N)”, in data set [2], the Michaelis constant (Km) came out at 0.40 ± 0.11 µM, the turnover number (kcat) worked out at 0.2 s⁻¹ and the kcat/Km came out at 450000 M⁻¹ s⁻¹.
